Measurements as given in the supplement of paper PMC12042874.
± gives the uncertainty stated by the source.

Assay: amyloid nucleation score (Sup35N fusion, yeast selection) (log enrichment); library NNK3; higher = more nucleation; inactive = no reads after selection
In short: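 Growth for 7 days at 30°C on medium lacking adenine and uracil followed a 24-hour induction with 100 μM copper sulfate of psi-negative yeast expressing peptides of 20 random codons fused to Sup35N. Input and output plasmid inserts were sequenced with Illumina, and sequences with under 100 input reads were excluded. Nucleation score is the DiMSum log enrichment of output over input reads, centred on the mode score of non-aggregating sequences.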

Substance	amyloid nucleation score
YPRTSFRFKGCDKEVVSDLL	inactive
EVNWSIIRGWVEISYTVPEL	inactive
LDAFRRLLEGASRTKCTF	inactive
SVRLSIVAGWFCKIWYSFLL	inactive
ATYAGSVITGLCEDTLYRNC	inactive
TTNDWHTFSGMVIKGWHIGK	inactive
CGTCLRMVKVTRSDV	inactive
YLSINHRTTSFYWYDFAGFP	0.537 ± 0.17
LITGLDLPGIWHTVYSYYSV	inactive
GNDVGSMFESRN	inactive
KSYFANSG	inactive
NSDSFML	inactive
EIGSHIGDVQHRVFYNVTLV	inactive
NFRCDICLPNLTRY	0.313 ± 0.16
ACYFWFNINIEHAR	1.78 ± 0.11
APENKVYVRAQVKTACKFRG	0.213 ± 0.81
EQRLSSGRWVS	inactive
LSINLASSSGVSVLLKGSNL	0.87 ± 0.24
KSYSAWSTVRDSKPTVLGN	inactive
YHDFLYIEGWQMSETNSFEC	inactive
MLSMTRCAHIDGGDWFKMAV	inactive

Substance	amyloid nucleation score
RRYDNYRYSHRMFFKRFQAV	inactive
FLDDSFVFGNRRRWAWGCRG	inactive
TPLSHNVRIMKKLGCDRRD	inactive
SAESKISIVWMEVRINNIFR	1.67 ± 0.065
VLLKALVIFDY	inactive
NKSLKLMYFSRDYFKDSRLN	inactive
TLWMQILDAKYRSCSLRLRR	inactive
RTLYSQNFK	inactive
YCVWLVSKTISWFQTVFI	inactive
DSWHFFCFIMVCIVKYWFFA	inactive
GWNTSSQRLHSAKPSHHRR	-0.892 ± 1.9
PTTFNVFLGLWCVGTYCTWL	0.997 ± 0.24
CEGCTYMCSCI	0.85 ± 0.1
FNVGFLKWCFSMVGQGVDLH	inactive
GASGCLSWHFGLIV	inactive
YASYGSKGGITTLRRIISGS	inactive
MKVWFSLPRILGGVKGTANK	inactive
LGAWVGVFMLKQ	inactive
MCRVV	-0.294 ± 0.93
RCLEEP	0.145 ± 0.34
TPPVWTSPSSRLASCFKGLW	1.31 ± 0.15

Substance	amyloid nucleation score
MHAVDNNLRVNIIMSVLLYK	inactive
GQVLNCVRNRIRIAVKRRGG	inactive
LVTSNNMSAGRYNMCLRVLS	inactive
SAYTNANGLNVSLFLMHHAC	inactive
GSQYNSFSK	inactive
GFTVMDPIV	inactive
KMILRFFSI	1.52 ± 0.063
SSYIESQELHSWAVQLRLLV	inactive
DPGHGS	inactive
DKEDHLSVFWAV	inactive
PKSFWVLSPIDLVIVVQVRQ	inactive
QLKHWTEIKQVLVVSREWVH	-0.395 ± 1.3
MAVSRK	inactive
MKFPEFQASCL	inactive
IEDQHLHVVLTGWGSKLSGH	inactive
RLNRVGNFIAGHLIGA	inactive
YWMNERLTSSKYDAGR	inactive
VWSVASYPSGPGKFCGGMTE	inactive
MPEKERAKSSPYLSEPRPHD	inactive
FFECSRRSSVLVQMS	inactive
RSVATLYGLRSCFCLVCSKL	1.41 ± 0.12

Substance	amyloid nucleation score
LAFFTHNIYF	1.97 ± 0.1
YQESKYIS	inactive
SGHVHNSMKPGRSRTCTMLR	inactive
PFLPAANNCVKQRCCFSGAL	inactive
GLDHLPMFWYRPLIWPDVPQ	inactive
VCHGRSNHA	inactive
SQVVSRSLVRLEQRNAQKSV	inactive
RLYNTIFPSKKIWYKKLEGC	inactive
SLFVLCFH	0.717 ± 0.13
DGLSLPPMMVNRVQTATQSR	inactive
HLIST	inactive
AQFGQTWFANFTSVFYCWSE	2.06 ± 0.064
LNVRSI	inactive
HVAGTCAQLTLFKDIGLTYK	inactive
DANWDTLIFLSSRMNAWRYK	1.86 ± 0.077
RVLDNTSSCRERNVGGDSFA	inactive
RYILRSL	inactive
GGCDL	inactive
